± gives the standard deviation of the averaged measurements.
Tests used:
[1] = tested on: MCF7; assay: percentage of EdU-negative (G0-arrested) nuclei per well, 72 h; higher = more G0 arrest; conditions: reference: sequence is the full UniProt precursor, the tested protein was the secreted form or ectodomain
[2] = tested on: hTERT-HMEC; assay: as above; conditions: reference: sequence is the full UniProt precursor, the tested protein was the secreted form or ectodomain
[3] = protein concentration 0.007835 µM
[4] = protein concentration 0.07835 µM
[5] = protein concentration 0.0225 µM
[6] = protein concentration 0.02823 µM
[7] = protein concentration 0.2823 µM
[8] = protein concentration 0.01475 µM
[9] = protein concentration 0.1475 µM
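Note: secreted proteins added to cultured cells, EdU pulse at the end, nuclei found by Hoechst imaging, EdU status from nuclear versus surrounding ring intensity ratio, PBS as neutral control.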

Sequence of Q6UXN8 (chain, as listed by the source): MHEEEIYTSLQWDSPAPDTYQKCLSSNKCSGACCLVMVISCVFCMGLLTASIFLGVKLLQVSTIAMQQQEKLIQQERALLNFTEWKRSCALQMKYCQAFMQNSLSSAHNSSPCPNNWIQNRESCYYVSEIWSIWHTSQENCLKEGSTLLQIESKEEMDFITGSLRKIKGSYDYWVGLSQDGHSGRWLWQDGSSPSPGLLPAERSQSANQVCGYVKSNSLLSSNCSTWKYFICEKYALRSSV

“MLPGAWLLWTSLLLLARPAQPCPMGCDCFVQEVFCSDEELATVPLDIPPYTKNIIFVETSFTTLETRAFGSNPNLTKVVFLNTQLCQFRPDAFGGLPRLEDLEVTGSSFLNLSTNIFSNLTSLGKLTLNFNMLEALPEGLFQHLAALESLHLQGNQLQALPRRLFQPLTHLKTLNLAQNLLAQLPEELFHPLTSLQTLKLSNNALSGLPQGVFGKLGSLQELFLDSNNISELPPQVFSQLFCLERLWLQRNAITHLPLSIFASLGNLTFLSLQWNMLRVLPAGLFAHTPCLVGLSLTHNQLETVAEGTFAHLSNLRSLMLSYNAITHLPAGIFRDLEELVKLYLGSNNLTALHPALFQNLSKLELLSLSKNQLTTLPEGIFDTNYNLFNLALHGNPWQCDCHLAYLFNWLQQYTDRLLNIQTYCAGPAYLKGQVVPALNEKQLVCPVTRDHLGFQVTWPDESKAGGSWDLAVQERAARSQCTYSNPEGTVVLACDQAQCRWLNVQLSPQQGSLGLQYNASQEWDLRSSCGSLRLTVSIEARAAGP” was tested, and the “percentage of EdU-negative” value ([1]; protein concentration 0.016 µM) was 25.6 ± 2.9%, the “percentage of EdU-negative” value ([1]; protein concentration 0.16 µM) was 31.1 ± 1.1% and the “percentage of EdU-negative” value ([2]; protein concentration 0.016 µM) was 4.47 ± 0.7%. For the same substance, the “percentage of EdU-negative” value ([2]; protein concentration 0.16 µM) was 9.62 ± 2.1%.

For “MLPARCARLLTPHLLLVLVQLSPARGHRTTGPRFLISDRDPQCNLHCSRTQPKPICASDGRSYESMCEYQRAKCRDPTLGVVHRGRCKDAGQSKCRLERAQALEQAKKPQEAVFVPECGEDGSFTQVQCHTYTGYCWCVTPDGKPISGSSVQNKTPVCSGSVTDKPLSQGNSGRKDDGSKPTPTMETQPVFDGDEITAPTLWIKHLVIKDSKLNNTNIRNSEKVYSCDQERQSALEEAQQNPREGIVIPECAPGGLYKPVQCHQSTGYCWCVLVDTGRPLPGTSTRYVMPSCESDARAKTTEADDPFKDRELPGCPEGKKMEFITSLLDALTTDMVQAINSAAPTGGGRFSEPDPSHTLEERVVHWYFSQLDSNSSNDINKREMKPFKRYVKKKAKPKKCARRFTDYCDLNKDKVISLPELKGCLGVSKEGRLV [Q9H4F8]”, the “percentage of EdU-negative” value [1, 3] was 26.5 ± 1.4%, the “percentage of EdU-negative” value [1, 4] was 31.1 ± 0.71% and the “percentage of EdU-negative” value [2, 3] was 4.85 ± 0.098%. For the same substance, the “percentage of EdU-negative” value [2, 4] was 16.6 ± 0.68%.

For “MWCIVLFSLLAWVYAEPTMYGEILSPNYPQAYPSEVEKSWDIEVPEGYGIHLYFTHLDIELSENCAYDSVQIISGDTEEGRLCGQRSSNNPHSPIVEEFQVPYNKLQVIFKSDFSNEERFTGFAAYYVATDINECTDFVDVPCSHFCNNFIGGYFCSCPPEYFLHDDMKNCGVNCSGDVFTALIGEIASPNYPKPYPENSRCEYQIRLEKGFQVVVTLRREDFDVEAADSAGNCLDSLVFVAGDRQFGPYCGHGFPGPLNIETKSNALDIIFQTDLTGQKKGWKLRYHGDPMPCPKEDTPNSVWEPAKAKYVFRDVVQITCLDGFEVVEGRVGATSFYSTCQSNGKWSNSKLKCQPVDCGIPESIENGKVEDPESTLFGSVIRYTCEEPYYYMENGGGGEYHCAGNGSWVNEVLGPELPKCVPVCGVPREPFEEKQRIIGGSDADIKNFPWQVFFDNPWAGGALINEYWVLTAAHVVEGNREPTMYVGSTSVQTSRLAKSKMLTPEHVFIHPGWKLLEVPEGRTNFDNDIALVRLKDPVKMGPTVSPICLPGTSSDYNLMDGDLGLISGWGRTEKRDRAVRLKAARLPVAPLRKCKEVKVEKPTADAEAYVFTPNMICAGGEKGMDSCKGDSGGAFAVQDPNDKTKFYAAGLVSWGPQCGTYGLYTRVKNYVDWIMKTMQENSTPRED”, the “percentage of EdU-negative” value [1, 5] was 23.9 ± 1.2%, the “percentage of EdU-negative” value ([1]; protein concentration 0.225 µM) was 24.2 ± 1.2% and the “percentage of EdU-negative” value [2, 5] was 4.97 ± 0.22%. The “percentage of EdU-negative” value ([2]; protein concentration 0.225 µM) was 6.85 ± 3.7%.

For “MERASCLLLLLLPLVHVSATTPEPCELDDEDFRCVCNFSEPQPDWSEAFQCVSAVEVEIHAGGLNLEPFLKRVDADADPRQYADTVKALRVRRLTVGAAQVPAQLLVGALRVLAYSRLKELTLEDLKITGTMPPLPLEATGLALSSLRLRNVSWATGRSWLAELQQWLKPGLKVLSIAQAHSPAFSCEQVRAFPALTSLDLSDNPGLGERGLMAALCPHKFPAIQNLALRNTGMETPTGVCAALAAAGVQPHSLDLSHNSLRATVNPSAPRCMWSSALNSLNLSFAGLEQVPKGLPAKLRVLDLSCNRLNRAPQPDELPEVDNLTLDGNPFLVPGTALPHEGSMNSGVVPACARSTLSVGVSGTLVLLQGARGFA”, the “percentage of EdU-negative” value [1, 6] was 26.8 ± 1.2%, the “percentage of EdU-negative” value [1, 7] was 27.2 ± 0.7% and the “percentage of EdU-negative” value [2, 6] was 4.9 ± 0.54%. The “percentage of EdU-negative” value [2, 7] was 8.12 ± 1.2%.

Q6UXN8 was tested, and the “percentage of EdU-negative” value [1, 5] was 24.9 ± 2.2%, the “percentage of EdU-negative” value ([1]; protein concentration 0.225 µM) was 25.2 ± 1.4% and the “percentage of EdU-negative” value [2, 5] was 4.27 ± 1%. The “percentage of EdU-negative” value ([2]; protein concentration 0.225 µM) was 4.93 ± 0.51%.

In the case of “MAQLCGLRRSRAFLALLGSLLLSGVLAADRERSIHDFCLVSKVVGRCRASMPRWWYNVTDGSCQLFVYGGCDGNSNNYLTKEECLKKCATVTENATGDLATSRNAADSSVPSAPRRQDSEDHSSDMFNYEEYCTANAVTGPCRASFPRWYFDVERNSCNNFIYGGCRGNKNSYRSEEACMLRCFRQQENPPLPLGSKVVVLAGLFVMVLILFLGASMVYLIRVARRNQERALRTVWSSGDDKEQLVKNTYVL”, the “percentage of EdU-negative” value [1, 5] is reported as 24.2 ± 2%, the “percentage of EdU-negative” value ([1]; protein concentration 0.225 µM) is reported as 25.4 ± 0.69% and the “percentage of EdU-negative” value [2, 5] is reported as 4.91 ± 0.26%. For the same substance, the “percentage of EdU-negative” value ([2]; protein concentration 0.225 µM) was 5.37 ± 0.98%.

“MRLHLLLLLALCGAGTTAAELSYSLRGNWSICNGNGSLELPGAVPGCVHSALFQQGLIQDSYYRFNDLNYRWVSLDNWTYSKEFKIPFEISKWQKVNLILEGVDTVSKILFNEVTIGETDNMFNRYSFDITNVVRDVNSIELRFQSAVLYAAQQSKAHTRYQVPPDCPPLVQKGECHVNFVRKEQCSFSWDWGPSFPTQGIWKDVRIEAYNICHLNYFTFSPIYDKSAQEWNLEIESTFDVVSSKPVGGQVIVAIPKLQTQQTYSIELQPGKRIVELFVNISKNITVETWWPHGHGNQTGYNMTVLFELDGGLNIEKSAKVYFRTVELIEEPIKGSPGLSFYFKINGFPIFLKGSNWIPADSFQDRVTSELLRLLLQSVVDANMNTLRVWGGGIYEQDEFYELCDELGIMVWQDFMFACALYPTDQGFLDSVTAEVAYQIKRLKSHPSIIIWSGNNENEEALMMNWYHISFTDRPIYIKDYVTLYVKNIRELVLAGDKSRPFITSSPTNGAETVAEAWVSQNPNSNYFGDVHFYDYISDCWNWKVFPKARFASEYGYQSWPSFSTLEKVSSTEDWSFNSKFSLHRQHHEGGNKQMLYQAGLHFKLPQSTDPLRTFKDTIYLTQVMQAQCVKTETEFYRRSRSEIVDQQGHTMGALYWQLNDIWQAPSWASLEYGGKWKMLHYFAQNFFAPLLPVGFENENTFYIYGVSDLHSDYSMTLSVRVHTWSSLEPVCSRVTERFVMKGGEAVCLYEEPVSELLRRCGNCTRESCVVSFYLSADHELLSPTNYHFLSSPKEAVGLCKAQITAIISQQGDIFVFDLETSAVAPFVWLDVGSIPGRFSDNGFLMTEKTRTILFYPWEPTSKNELEQSFHVTSLTDIY” was tested, and the “percentage of EdU-negative” value [1, 8] was 25.3 ± 0.54%, the “percentage of EdU-negative” value [1, 9] was 28.1 ± 0.47% and the “percentage of EdU-negative” value [2, 8] was 5.29 ± 0.2%. For the same substance, the “percentage of EdU-negative” value [2, 9] was 5.9 ± 0.22%.
